The values below come from the supplement of paper PMC5998384.

Series [1] has as its system HeLa Kyoto. Nature of the series: solubility in G1/S (NP-40 vs SDS abundance) (log2 ratio); higher = more soluble. To be noted: cell cycle stage: G1/S.
In series [2] the test system is HeLa Kyoto. Description: melting temperature (median over replicates), in situ; higher = more thermally stable.
Series [3] concerns HeLa Kyoto. Description: solubility change mitosis vs G1/S (difference of NP-40 vs SDS log2 ratios) (log2 ratio difference); higher = more soluble in mitosis.
The test system of series [4] is HeLa Kyoto. Nature of the series: thermal stability score vs G1/S (z-score of summed log2 fold changes over temperatures); higher = more thermally stable than in G1/S.
Setting [5] is: cell cycle stage: early G1 (4.5 h after nocodazole release).
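Throughout, for melting temperature (median over replicates), in situ: HeLa Kyoto cells synchronized by double thymidine or nocodazole block, proteins quantified by TMT10plex mass spectrometry, three independent biological replicates.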
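Throughout, for solubility change mitosis vs G1/S (difference of NP-40 vs SDS log2 ratios): synchronized HeLa Kyoto cells (double thymidine block for G1/S, nocodazole release for mitosis), protein amounts in NP-40 versus SDS lysates quantified by mass spectrometry, three biological replicates.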
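Throughout, for solubility in G1/S (NP-40 vs SDS abundance): HeLa Kyoto cells arrested at G1/S by double thymidine block, proteins quantified by TMT10plex mass spectrometry in mild NP-40 versus SDS extracts, three biological replicates.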
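Throughout, for thermal stability score vs G1/S (z-score of summed log2 fold changes over temperatures): synchronized HeLa Kyoto cells, proteins quantified by TMT10plex mass spectrometry, three biological replicates, mitosis taken 0.5 h after nocodazole release, G1/S directly after double thymidine block.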

Chain of CHMP5 (chain, as listed by the source): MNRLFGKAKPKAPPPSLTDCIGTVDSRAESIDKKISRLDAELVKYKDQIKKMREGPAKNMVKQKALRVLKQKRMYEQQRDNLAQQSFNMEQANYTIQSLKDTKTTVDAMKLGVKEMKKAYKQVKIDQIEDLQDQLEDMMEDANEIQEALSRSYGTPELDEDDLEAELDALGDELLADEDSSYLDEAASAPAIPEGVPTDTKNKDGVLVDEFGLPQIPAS

On to “MVAPVLETSHVFCCPNRVRGVLNWSSGPRGLLAFGTSCSVVLYDPLKRVVVTNLNGHTARVNCIQWICKQDGSPSTELVSGGSDNQVIHWEIEDNQLLKAVHLQGHEGPVYAVHAVYQRRTSDPALCTLIVSAAADSAVRLWSKKGPEVMCLQTLNFGNGFALALCLSFLPNTDVPILACGNDDCRIHIFAQQNDQFQKVLSLCGHEDWIRGVEWAAFGRDLFLASCSQDCLIRIWKLYIKSTSLETQDDDNIRLKENTFTIENESVKIAFAVTLETVLAGHENWVNAVHWQPVFYKDGVLQQPVRLLSASMDKTMILWAPDEESGVWLEQVRVGEVGGNTLGFYDCQFNEDGSMIIAHAFHGALHLWKQNTVNPREWTPEIVISGHFDGVQDLVWDPEGEFIITVGTDQTTRLFAPWKRKDQSQVTWHEIARPQIHGYDLKCLAMINRFQFVSGADEKVLRVFSAPRNFVENFCAITGQSLNHVLCNQDSDLPEGATVPALGLSNKAVFQGDIASQPSDEEELLTSTGFEYQQVAFQPSILTEPPTEDHLLQNTLWPEVQKLYGHGYEIFCVTCNSSKTLLASACKAAKKEHAAIILWNTTSWKQVQNLVFHSLTVTQMAFSPNEKFLLAVSRDRTWSLWKKQDTISPEFEPVFSLFAFTNKITSVHSRIIWSCDWSPDSKYFFTGSRDKKVVVWGECDSTDDCIEHNIGPCSSVLDVGGAVTAVSVCPVLHPSQRYVVAVGLECGKICLYTWKKTDQVPEINDWTHCVETSQSQSHTLAIRKLCWKNCSGKTEQKEAEGAEWLHFASCGEDHTVKIHRVNKCAL [ELP2]”, for which the “solubility in G1/S (log2)” value in the series with HeLa Kyoto [1] was -0.174. Further, the melting temperature in the series with HeLa Kyoto [2] (cell cycle stage: G1/S) stood at 51.7 °C; with HeLa Kyoto [2] (cell cycle stage: mitosis), 51.4 °C. In addition, the “solubility change mitosis (log2)” value in the series with HeLa Kyoto [3] is -0.181. Moreover, the thermal stability score with HeLa Kyoto [4] (setting [5]) was -0.251; in the series with HeLa Kyoto [4] (cell cycle stage: mitosis) it was -1.61.
As for “MALRACGLIIFRRCLIPKVDNNAIEFLLLQASDGIHHWTPPKGHVEPGEDDLETALRETQEEAGIEAGQLTIIEGFKRELNYVARNKPKTVIYWLAEVKDYDVEIRLSHEHQAYRWLGLEEACQLAQFKEMKAALQEGHQFLCSIEA [NUDT2]”, in the series with HeLa Kyoto [1], the “solubility in G1/S (log2)” value was -0.102. Moreover, the melting temperature in the series with HeLa Kyoto [2] (cell cycle stage: G1/S) amounted to 51.7 °C; in the series with HeLa Kyoto [2] (cell cycle stage: mitosis), 51.9 °C. Further, the “solubility change mitosis (log2)” value in the series with HeLa Kyoto [3] came to 0.0921. The thermal stability score was -0.841 with HeLa Kyoto [4] (setting [5]) and -1.24 with HeLa Kyoto [4] (cell cycle stage: mitosis).
On to “MSIFTPTNQIRLTNVAVVRMKRAGKRFEIACYKNKVVGWRSGVEKDLDEVLQTHSVFVNVSKGQVAKKEDLISAFGTDDQTEICKQILTKGEVQVSDKERHTQLEQMFRDIATIVADKCVNPETKRPYTVILIERAMKDIHYSVKTNKSTKQQALEVIKQLKEKMKIERAHMRLRFILPVNEGKKLKEKLKPLIKVIESEDYGQQLEIVCLIDPGCFREIDELIKKETKGKGSLEVLNLKDVEEGDEKFE [SBDS]”, for which, in the series with HeLa Kyoto [1], the “solubility in G1/S (log2)” value was -0.0131. In addition, the melting temperature in the series on HeLa Kyoto [2] (cell cycle stage: G1/S) was found to be 50.4 °C; with HeLa Kyoto [2] (cell cycle stage: mitosis) it was 50.2 °C. For the same substance, the “solubility change mitosis (log2)” value with HeLa Kyoto [3] is -0.0695. Further, the thermal stability score in the series on HeLa Kyoto [4] (setting [5]) amounted to 1.75; in the series with HeLa Kyoto [4] (cell cycle stage: mitosis), 2.97.
Turning to CHMP5, in the series on HeLa Kyoto [1], the “solubility in G1/S (log2)” value is 0.437. The melting temperature turned out to be 55.2 °C in the series on HeLa Kyoto [2] (cell cycle stage: G1/S) and 52.2 °C in the series with HeLa Kyoto [2] (cell cycle stage: mitosis). Besides, the “solubility change mitosis (log2)” value with HeLa Kyoto [3] was 0.751. Moreover, the thermal stability score is -3.8 in the series with HeLa Kyoto [4] (setting [5]) and -3.3 with HeLa Kyoto [4] (cell cycle stage: mitosis).
On to EIF2AK4, for which the “solubility in G1/S (log2)” value with HeLa Kyoto [1] is -0.218. Besides, the figures for the melting temperature in the series on HeLa Kyoto [2] (cell cycle stage: G1/S) and in the series with HeLa Kyoto [2] (cell cycle stage: mitosis) were 50.8 °C and 50.3 °C, respectively. Further, the “solubility change mitosis (log2)” value in the series on HeLa Kyoto [3] is -0.0694. Besides, the thermal stability score is 0.686 with HeLa Kyoto [4] (setting [5]) and 0.568 with HeLa Kyoto [4] (cell cycle stage: mitosis).
On to “MSVACVLKRKAVLWQDSFSPHLKHHPQEPANPNMPVVLTSGTGSQAQPQPAANQALAAGTHSSPVPGSIGVAGRSQDDAMVDYFFQRQHGEQLGGGGSGGGGYNNSKHRWPTGDNIHAEHQVRSMDELNHDFQALALEGRAMGEQLLPGKKFWETDESSKDGPKGIFLGDQWRDSAWGTSDHSVSQPIMVQRRPGQSFHVNSEVNSVLSPRSESGGLGVSMVEYVLSSSPGDSCLRKGGFGPRDADSDENDKGEKKNKGTFDGDKLGDLKEEGDVMDKTNGLPVQNGIDADVKDFSRTPGNCQNSANEVDLLGPNQNGSEGLAQLTSTNGAKPVEDFSNMESQSVPLDPMEHVGMEPLQFDYSGTQVPVDSAAATVGLFDYNSQQQLFQRPNALAVQQLTAAQQQQYALAAAHQPHIGLAPAAFVPNPYIISAAPPGTDPYTAGLAAAATLGPAVVPHQYYGVTPWGVYPASLFQQQAAAAAAATNSANQQTTPQAQQGQQQVLRGGASQRPLTPNQNQQGQQTDPLVAAAAVNSALAFGQGLAAGMPGYPVLAPAAYYDQTGALVVNAGARNGLGAPVRLVAPAPVIISSSAAQAAVAAAAASANGAAGGLAGTTNGPFRPLGTQQPQPQPQQQPNNNLASSSFYGNNSLNSNSQSSSLFSQGSAQPANTSLGFGSSSSLGATLGSALGGFGTAVANSNTGSGSRRDSLTGSSDLYKRTSSSLTPIGHSFYNGLSFSSSPGPVGMPLPSQGPGHSQTPPPSLSSHGSSSSLNLGGLTNGSGRYISAAPGAEAKYRSASSASSLFSPSSTLFSSSRLRYGMSDVMPSGRSRLLEDFRNNRYPNLQLREIAGHIMEFSQDQHGSRFIQLKLERATPAERQLVFNEILQAAYQLMVDVFGNYVIQKFFEFGSLEQKLALAERIRGHVLSLALQMYGCRVIQKALEFIPSDQQNEMVRELDGHVLKCVKDQNGNHVVQKCIECVQPQSLQFIIDAFKGQVFALSTHPYGCRVIQRILEHCLPDQTLPILEELHQHTEQLVQDQYGNYVIQHVLEHGRPEDKSKIVAEIRGNVLVLSQHKFASNVVEKCVTHASRTERAVLIDEVCTMNDGPHSALYTMMKDQYANYVVQKMIDVAEPGQRKIVMHKIRPHIATLRKYTYGKHILAKLEKYYMKNGVDLGPICGPPNGII [PUM1]”, for which the “solubility in G1/S (log2)” value with HeLa Kyoto [1] was 0.186. For the same substance, the melting temperature in the series with HeLa Kyoto [2] (cell cycle stage: G1/S) was 51.5 °C; in the series with HeLa Kyoto [2] (cell cycle stage: mitosis), 51 °C. In addition, the “solubility change mitosis (log2)” value in the series with HeLa Kyoto [3] was -0.102. Further, the thermal stability score in the series with HeLa Kyoto [4] (setting [5]) is -1.3; in the series on HeLa Kyoto [4] (cell cycle stage: mitosis) it was -1.48.
